{"source": "patent US20100216191A1", "about": "“Method for Manufacturing a Modified Peptide” (PROCOMCURE BIOTECH GMBH, priority 2007, published 2010)", "tested_on": "GST-tagged FnbB", "test": "Pull-down with GST-tagged FnbB, proteins from rabbit reticulocyte translation system", "assay_type": "binding, S. aureus", "details": "cell-free protein translation system; GST alone as negative control", "description": "Recombinant proteins were produced from the isolated plasmids from the PPI-partners in a rabbit reticulocyte-based translation system and additionally in E. coli cells. The produced recombinant proteins were used for pull-down and immunoprecipitation experiments."}
{"molecule": "HSPC 118: human protein interacting with FnbB, NCBI Protein GI 6841458 (protein) MVGGGGVGGGLLENANPLIYQRSGERPVTAGEEDEQVPDSIDAREIFDLIRSINDPEHPLTLEELNVVEQVRVQVSDPESTVAVAFTPTIPHCSMATLIGLSIKVKLLRSLPQRFKMDVHITPGTHASEHAVNKQLADKERVAAALENTHLLEVVNQCLSARS", "values": [{"measurement": "Co-purified with GST-tagged FnbB", "result": "could be co-purified"}]}
{"molecule": "FLNA: human protein interacting with FnbB, NCBI Protein GI 15779184 (protein) MPSGKVAQPTITDNKDGTVTVRYAPSEAGLHEMDIRYDNMHIPGSPLQFYVDYVNCGHVTAYGPGLTHGVVNKPATFTVNTKDAGEGGLSLAIEGPSKAEISCTDNQDGTCSVSYLPVLPGDYSILVKYNEQHVPGSPFTARVTGDDSMRMSHLKVGSAADIPINISETDLSLLTATVVPPSGREEPCLLKRLRNGHVGISFVPKETGEHLVHVKKNGQHVASSPIPVVISQSEIGDASRVRVSGQGLHEGHTFEPAEFIIDTRDAGYGGLSLSIEGPSKVDINTEDLEDGTCRVTYCPTEPGNYIINIKFADQHVPGSPFSVKVTGEGRVKESITRRRRAPSVANVGSHCDLSLKIPEISIQDMTAQVTSPSGKTHEAEIVEGENHTYCIRFVPAEMGTHTVSVKYKGQHVPGSPFQFTVGPLGEGGAHKVRAGGPGLERAEAGVPAEFSIWTREAGAGGLAIAVEGPSKAEISFEDRKDGSCGVAYVVQEPGDYEVSVKFNEEHIPDSPFVVPVASPSGDARRLTVSSLQESGLKVNQPASFAVSLNGAKGAIDAKVHSPSGALEECYVTEIDQDKYAVRFIPRENGVYLIDVKFNGTHIPGSPFKIRVGEPGHGGDPGLVSAYGAGLEGGVTGNPAEFVVNTSNAGAGALSVTIDGPSKVKMDCQECPEGYRVTYTPMAPGSYLISIKYGGPYHIGGSPFKAKVTGPRLVSNHSLHETSSVFVDSLTKATCAPQHGAPGPGPADASKVVAKGLGLSKAYVGQKSSFTVDCSKAGNNMLLVGVHGPRTPCEEILVKHVGSRLYSVSYLLKDKGEYTLVVKWGDEHIPGSPYRVVVP", "values": [{"measurement": "Co-purified with GST-tagged FnbB", "result": "could be co-purified"}]}
